These results are taken from patent US20180186893A1 (NATIONAL RESEARCH COUNCIL OF CANADA, published 2018).

Experiment [1] deals with T1, hCA-IX fragment 2 (aa 38-136, +PG+) displayed on yeast as Aga2-HA-CA9-MYC (pPNL6), clone 2B (human, UniProt P32781 19-87; Q16790 38-136).
T1 construct: not shown: HA tag; MYC tag
Description: YSD whole yeast cell ELISA, native.

The target in experiment [2] is T2, rhCA-IV (human, UniProt P22748 19-283, limits assumed).
T2 construct: Bought; construct not described; also called recombinant human CA-IV
The experiment can be described thus: SPR, antibody captured by anti-human Fc. (SPR reads the build-up and loss of mass on a sensor chip optically.)

Experiment [3] deals with T3, rhCA-XII (human, UniProt O43570 25-291, limits assumed).
T3 construct: Bought; construct not described; also called recombinant human CA-XII (Sino Biologics)
Description: SPR, antibody captured by anti-human Fc.

Experiment [4] deals with T4, rhCA-XIV (human, UniProt Q9ULX7 16-290, limits assumed).
T4 construct: Bought; construct not described; also called recombinant human CA-XIV
The experiment can be described thus: SPR, antibody captured by anti-human Fc.

Experiment [5] has as its target T5, rmCA-IX (murine, UniProt Q8VHB5 32-389, limits assumed).
T5 construct: Bought; construct not described; also called recombinant murine (rm)CA-IX
Description: SPR, antibody captured by anti-human Fc.

In experiment [6] the target is T6, hCA-IX PG domain fragment #1 (aa 37-51) displayed on yeast as Aga2-HA-CA9-MYC (pPNL6), clone 1 A + B (human, UniProt P32781 19-87 (Saccharomyces cerevisiae entry)).
T6 construct: not shown: HA tag; MYC tag
The experiment can be described thus: YSD whole yeast cell ELISA, native PG tiling fragment.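 Further: monoclonal antibody binding to intact yeast cells displaying the fragment, read by ELISA, with the anti-CA-IX signal normalized against the anti-MYC display signal.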

Experiment [7] has as its target T7, hCA-IX PG domain fragment #2 (aa 47-61) displayed on yeast as Aga2-HA-CA9-MYC (pPNL6), clone 2 A + B (human, UniProt P32781 19-87 (Saccharomyces cerevisiae entry)).
T7 construct: not shown: HA tag; MYC tag
The description is as above.

The target of experiment [8] is T8, hCA-IX PG domain fragment #3 (aa 57-71) displayed on yeast as Aga2-HA-CA9-MYC (pPNL6), clone 3 A + B (human, UniProt P32781 19-87 (Saccharomyces cerevisiae entry)).
T8 construct: not shown: HA tag; MYC tag
The description is as above.

Experiment [9] deals with T9, hCA-IX PG domain fragment #4 (aa 67-81) displayed on yeast as Aga2-HA-CA9-MYC (pPNL6), clone 4 A + B (human, UniProt P32781 19-87 (Saccharomyces cerevisiae entry)).
T9 construct: not shown: HA tag; MYC tag
Described as above.

For experiment [10], the target named is T10, hCA-IX PG domain fragment #5 (aa 77-91) displayed on yeast as Aga2-HA-CA9-MYC (pPNL6), clone 5 A + B (human, UniProt P32781 19-87 (Saccharomyces cerevisiae entry)).
T10 construct: not shown: HA tag; MYC tag
The experiment is described as above.

In experiment [11] the target is T11, hCA-IX PG domain fragment #6 (aa 87-101) displayed on yeast as Aga2-HA-CA9-MYC (pPNL6), clone 6 A + B (human, UniProt P32781 19-87 (Saccharomyces cerevisiae entry)).
T11 construct: not shown: HA tag; MYC tag
The experiment is described as above.

Experiment [12] deals with T12, hCA-IX PG domain fragment #7 (aa 97-111) displayed on yeast as Aga2-HA-CA9-MYC (pPNL6), clone 7 A + B (human, UniProt P32781 19-87 (Saccharomyces cerevisiae entry)).
T12 construct: not shown: HA tag; MYC tag
The description is as above.

For experiment [13], the target named is T13, hCA-IX PG domain fragment #8 (aa 107-121) displayed on yeast as Aga2-HA-CA9-MYC (pPNL6), clone 8 A + B (human, UniProt P32781 19-87 (Saccharomyces cerevisiae entry)).
T13 construct: not shown: HA tag; MYC tag
Described as above.

In experiment [14] the target is T14, hCA-IX PG domain fragment #9 (aa 117-131) displayed on yeast as Aga2-HA-CA9-MYC (pPNL6), clone 9 A + B (human, UniProt P32781 19-87 (Saccharomyces cerevisiae entry)).
T14 construct: not shown: HA tag; MYC tag
The experiment is described as above.

Experiment [15] addresses T15, hCA-IX PG domain fragment #11 (aa 37-71) displayed on yeast as Aga2-HA-CA9-MYC (pPNL6), clone 11 A + B (human, UniProt P32781 19-87 (Saccharomyces cerevisiae entry)).
T15 construct: not shown: HA tag; MYC tag
The description is as above.

The target in experiment [16] is T16, hCA-IX PG domain fragment #12 (aa 67-111) displayed on yeast as Aga2-HA-CA9-MYC (pPNL6), clone 12 A + B (human, UniProt P32781 19-87 (Saccharomyces cerevisiae entry)).
T16 construct: not shown: HA tag; MYC tag
Described as above.

For experiment [17], the target named is T17, hCA-IX PG domain fragment #13 (aa 107-140) displayed on yeast as Aga2-HA-CA9-MYC (pPNL6), clone 13 A + B (human, UniProt P32781 19-87 (Saccharomyces cerevisiae entry)).
T17 construct: not shown: HA tag; MYC tag
Described as above.

Experiment [18] has as its target T18, hCA-IX PG domain fragment #14 (aa 37-140) displayed on yeast as Aga2-HA-CA9-MYC (pPNL6), clone 14 A + B (human, UniProt P32781 19-87 (Saccharomyces cerevisiae entry)).
T18 construct: not shown: HA tag; MYC tag
The experiment is described as above.

For experiment [19], the target named is T19, dimeric CA-IX extracellular domain (ECD) from mouse (mouse, UniProt Q8VHB5 32-390).
T19 construct: extracellular domain
The experiment can be described thus: SPR, antibody captured by anti-human Fc, specific binding yes/no.

In experiment [20] the target is hCA-IX fragment 8 (aa 38-414, +PG+CA+) displayed on yeast as Aga2-HA-CA9-MYC (pPNL6), clone 8B (human, UniProt P32781 19-87; Q16790 38-414). The experiment can be described thus: YSD whole yeast cell ELISA, native, normalised to anti-MYC; native fragment on yeast (Table 7).
Chain of hCA-IX fragment 8 (aa 38-414, +PG+CA+) displayed on yeast as Aga2-HA-CA9-MYC (pPNL6), clone 8B (P32781 19-87 limits assumed, chain 1 of 2, other chains not shown): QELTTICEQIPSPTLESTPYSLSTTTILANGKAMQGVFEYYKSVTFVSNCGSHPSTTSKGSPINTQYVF

T12 sequence (P32781 19-87 limits assumed): as the sequence (P32781 19-87 limits assumed, chain 1 of 2, other chains not shown) above
T1 sequence (P32781 19-87 limits assumed, chain 1 of 2, other chains not shown): as above
T17 sequence (P32781 19-87 limits assumed, chain 1 of 2): as the sequence (P32781 19-87 limits assumed, chain 1 of 2, other chains not shown) above
T17 sequence (chain (part 2 of 2), as listed by the source limits assumed, chain 2 of 2): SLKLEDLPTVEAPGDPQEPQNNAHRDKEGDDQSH
T7 sequence (P32781 19-87 limits assumed): as the sequence (P32781 19-87 limits assumed, chain 1 of 2, other chains not shown) above
T6 sequence (P32781 19-87 limits assumed): as the sequence (P32781 19-87 limits assumed, chain 1 of 2, other chains not shown) above
T8 sequence (P32781 19-87 limits assumed): as the sequence (P32781 19-87 limits assumed, chain 1 of 2, other chains not shown) above
T15 sequence (P32781 19-87 limits assumed, chain 1 of 2): as the sequence (P32781 19-87 limits assumed, chain 1 of 2, other chains not shown) above
T15 sequence (chain (part 2 of 2), as listed by the source limits assumed, chain 2 of 2): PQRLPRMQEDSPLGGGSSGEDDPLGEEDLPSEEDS
T10 sequence (P32781 19-87 limits assumed): as the sequence (P32781 19-87 limits assumed, chain 1 of 2, other chains not shown) above
T11 sequence (P32781 19-87 limits assumed): as the sequence (P32781 19-87 limits assumed, chain 1 of 2, other chains not shown) above
T14 sequence (P32781 19-87 limits assumed): as the sequence (P32781 19-87 limits assumed, chain 1 of 2, other chains not shown) above
T13 sequence (P32781 19-87 limits assumed): as the sequence (P32781 19-87 limits assumed, chain 1 of 2, other chains not shown) above
T9 sequence (P32781 19-87 limits assumed): as the sequence (P32781 19-87 limits assumed, chain 1 of 2, other chains not shown) above
T18 sequence (P32781 19-87 limits assumed, chain 1 of 2): as the sequence (P32781 19-87 limits assumed, chain 1 of 2, other chains not shown) above
T18 sequence (chain (part 2 of 2), as listed by the source limits assumed, chain 2 of 2): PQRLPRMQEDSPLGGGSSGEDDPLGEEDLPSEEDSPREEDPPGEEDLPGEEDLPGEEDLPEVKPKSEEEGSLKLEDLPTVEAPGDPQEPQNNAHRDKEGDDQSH
T16 sequence (P32781 19-87 limits assumed, chain 1 of 2): as the sequence (P32781 19-87 limits assumed, chain 1 of 2, other chains not shown) above
T16 sequence (chain (part 2 of 2), as listed by the source limits assumed, chain 2 of 2): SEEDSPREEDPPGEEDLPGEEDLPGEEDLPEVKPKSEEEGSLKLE
T5 sequence (Q8VHB5 32-389 limits assumed): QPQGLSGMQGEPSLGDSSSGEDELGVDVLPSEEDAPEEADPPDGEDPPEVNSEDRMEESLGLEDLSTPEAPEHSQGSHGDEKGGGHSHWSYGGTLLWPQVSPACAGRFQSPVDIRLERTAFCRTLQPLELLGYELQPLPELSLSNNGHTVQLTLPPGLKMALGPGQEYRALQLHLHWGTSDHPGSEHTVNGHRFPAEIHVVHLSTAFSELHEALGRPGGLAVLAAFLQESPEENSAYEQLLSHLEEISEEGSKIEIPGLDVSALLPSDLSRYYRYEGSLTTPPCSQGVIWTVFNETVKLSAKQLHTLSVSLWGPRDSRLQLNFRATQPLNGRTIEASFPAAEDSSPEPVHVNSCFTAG
T3 sequence (O43570 25-291 limits assumed): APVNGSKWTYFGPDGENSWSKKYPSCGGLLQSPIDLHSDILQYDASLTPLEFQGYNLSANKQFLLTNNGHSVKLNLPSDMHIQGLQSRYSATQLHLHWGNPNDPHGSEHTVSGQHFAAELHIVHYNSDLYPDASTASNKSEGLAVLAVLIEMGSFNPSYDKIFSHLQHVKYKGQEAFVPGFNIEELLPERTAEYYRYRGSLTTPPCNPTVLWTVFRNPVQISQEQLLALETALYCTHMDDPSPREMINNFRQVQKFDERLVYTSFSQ
T19 sequence (Q8VHB5 32-390): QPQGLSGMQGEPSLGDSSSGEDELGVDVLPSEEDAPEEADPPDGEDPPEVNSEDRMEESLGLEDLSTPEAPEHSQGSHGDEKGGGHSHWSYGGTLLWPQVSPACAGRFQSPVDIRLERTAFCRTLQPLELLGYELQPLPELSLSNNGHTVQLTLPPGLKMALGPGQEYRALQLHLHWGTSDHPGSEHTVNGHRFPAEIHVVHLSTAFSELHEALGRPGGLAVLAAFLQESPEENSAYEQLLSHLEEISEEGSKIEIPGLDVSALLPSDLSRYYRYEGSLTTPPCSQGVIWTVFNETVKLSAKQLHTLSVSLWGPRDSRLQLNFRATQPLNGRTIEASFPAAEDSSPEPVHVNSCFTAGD
T4 sequence (Q9ULX7 16-290 limits assumed): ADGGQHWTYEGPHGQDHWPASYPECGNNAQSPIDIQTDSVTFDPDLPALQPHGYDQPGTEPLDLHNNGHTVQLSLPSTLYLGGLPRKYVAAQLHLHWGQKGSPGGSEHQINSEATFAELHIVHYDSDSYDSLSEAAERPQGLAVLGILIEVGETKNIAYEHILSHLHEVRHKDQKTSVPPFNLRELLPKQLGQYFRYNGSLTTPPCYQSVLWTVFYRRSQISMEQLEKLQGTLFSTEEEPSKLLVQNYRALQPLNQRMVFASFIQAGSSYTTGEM
T2 sequence (P22748 19-283 limits assumed): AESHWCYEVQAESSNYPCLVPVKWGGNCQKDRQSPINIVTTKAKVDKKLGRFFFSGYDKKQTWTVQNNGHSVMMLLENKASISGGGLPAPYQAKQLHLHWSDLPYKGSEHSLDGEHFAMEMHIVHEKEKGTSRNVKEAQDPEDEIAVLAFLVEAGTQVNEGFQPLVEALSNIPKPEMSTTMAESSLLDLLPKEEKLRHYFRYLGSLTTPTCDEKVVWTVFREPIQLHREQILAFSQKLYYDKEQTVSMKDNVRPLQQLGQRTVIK

B1: c2C7 (chimeric 2C7, human IgG1 / human kappa 1) (antibody, V domains shown)
VH: QVQLQQSGPELVKPGASVRISCKASGFTFTSCYIHWMKQRPGQGLEWIGWIYPGNGNTKYNEIFKGRATLTTDKSSSTAYMQLSSLTSEDSAVYFCARGDTTANTMDYWGQGTSVTVSS
VL: DIQMTQSPASLSASVGETVTITCRASGNIHNYLAWYQQKQGKSPQLLVYNTITLADGVPSRFSGSGSGTQYSLKINSLQPEDFGSYYCQHFWNIPFTFGAGTKLELKR
notes: Expressed in CHO cells
As to B1, the binding result is listed as “no binding” in [1]; “no binding (tested: 100 nM)” in experiment [2]; “no binding (tested: 100 nM)” in [3]; “no binding (tested: 100 nM)” in experiment [4]; “no binding (tested: 100 nM)” in experiment [5]; “no binding” in experiment [6]. For the same molecule, the binding result in experiment [7], in experiment [8], in experiment [9], in experiment [10], in [11] and in experiment [12] was “no binding” each time. In addition, the binding result in experiment [13], in experiment [14], in [15], in [16], in experiment [17] and in experiment [18] was “no binding” each time. The results for the binding result in experiment [19] and in [20] were “no binding” and “binds”, respectively.
